Patent US20230340152A1 (published 2023)

Tests used:
[1] = target: T1, Human CD73 on cells (MDA-MB-231, Jurkat CD73 knock-in, NCI-H322) (human, UniProt P21589 27-549); assay: FACS on MDA-MB-231 cells, vs CD730002SGMY
T1 construct: GPI-anchored native protein; also called native human CD73
T1 sequence: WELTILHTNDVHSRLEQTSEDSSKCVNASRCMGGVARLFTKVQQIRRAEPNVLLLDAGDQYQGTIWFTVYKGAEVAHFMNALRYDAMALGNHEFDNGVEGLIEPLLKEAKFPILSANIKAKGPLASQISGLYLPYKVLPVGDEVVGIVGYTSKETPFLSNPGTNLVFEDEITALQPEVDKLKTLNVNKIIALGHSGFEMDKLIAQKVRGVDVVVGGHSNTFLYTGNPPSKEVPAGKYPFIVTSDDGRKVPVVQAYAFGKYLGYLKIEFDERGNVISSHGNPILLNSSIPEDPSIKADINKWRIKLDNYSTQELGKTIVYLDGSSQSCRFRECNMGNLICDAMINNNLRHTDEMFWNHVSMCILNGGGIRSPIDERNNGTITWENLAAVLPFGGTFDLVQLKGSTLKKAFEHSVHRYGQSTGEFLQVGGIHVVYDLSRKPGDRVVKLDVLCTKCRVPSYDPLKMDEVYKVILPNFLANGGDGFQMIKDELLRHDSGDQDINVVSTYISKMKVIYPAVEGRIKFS

Human CD73 ECD [2] = target: T2, Human CD73 ECD (human, UniProt P21589 27-549); assay: cell-based or functional assay
T2 sequence: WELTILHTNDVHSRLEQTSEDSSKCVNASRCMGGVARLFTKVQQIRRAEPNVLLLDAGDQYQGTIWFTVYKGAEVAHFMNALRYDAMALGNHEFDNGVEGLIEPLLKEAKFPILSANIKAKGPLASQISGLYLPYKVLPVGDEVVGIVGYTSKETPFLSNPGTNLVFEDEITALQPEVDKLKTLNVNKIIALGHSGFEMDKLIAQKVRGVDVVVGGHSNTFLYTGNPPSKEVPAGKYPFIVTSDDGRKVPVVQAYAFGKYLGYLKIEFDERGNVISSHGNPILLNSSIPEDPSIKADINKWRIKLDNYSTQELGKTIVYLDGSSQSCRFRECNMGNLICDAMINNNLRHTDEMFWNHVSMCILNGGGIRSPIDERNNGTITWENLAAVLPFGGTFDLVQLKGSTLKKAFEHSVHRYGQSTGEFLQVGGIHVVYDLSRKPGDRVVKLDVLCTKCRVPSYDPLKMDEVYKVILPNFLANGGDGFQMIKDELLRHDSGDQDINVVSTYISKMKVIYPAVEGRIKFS

[3] = target: T1, Human CD73 on cells (MDA-MB-231, Jurkat …); assay: cell-based or functional assay
Human CD73 ECD [4] = target: T2, Human CD73 ECD; assay: SPR (Proteon)
[5] = target: T3, Cynomolgus CD73 on MK-1 cells (cynomolgus, UniProt A0A2K5V5U7 27-549); assay: flow cytometry on cells
T3 construct: whole, on cells; also called MK-1 (cyno)
T3 sequence: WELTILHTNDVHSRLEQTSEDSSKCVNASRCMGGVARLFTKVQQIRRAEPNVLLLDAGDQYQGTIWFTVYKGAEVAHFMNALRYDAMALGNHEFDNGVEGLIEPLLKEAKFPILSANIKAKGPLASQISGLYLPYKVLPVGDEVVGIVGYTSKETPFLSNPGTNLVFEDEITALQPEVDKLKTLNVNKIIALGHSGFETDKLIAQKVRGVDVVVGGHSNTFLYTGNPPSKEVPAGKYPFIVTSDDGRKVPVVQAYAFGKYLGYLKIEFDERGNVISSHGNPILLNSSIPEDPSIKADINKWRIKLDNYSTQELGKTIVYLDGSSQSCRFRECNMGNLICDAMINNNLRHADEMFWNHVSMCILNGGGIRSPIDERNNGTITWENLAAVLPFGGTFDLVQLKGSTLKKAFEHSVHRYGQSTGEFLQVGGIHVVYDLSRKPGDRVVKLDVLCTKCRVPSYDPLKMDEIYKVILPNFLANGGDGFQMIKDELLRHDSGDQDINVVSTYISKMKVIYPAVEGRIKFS

[6] = target: T1, Human CD73 on cells (MDA-MB-231, Jurkat …); assay: flow cytometry on cells
[7] = target: T4, Murine CD73 on cells (4T1, Jurkat mCD73 knock-in) (murine, UniProt Q61503 29-551); assay: flow cytometry on cells
T4 construct: whole, on cells; also called 4T1 (murine)
T4 sequence (looked up): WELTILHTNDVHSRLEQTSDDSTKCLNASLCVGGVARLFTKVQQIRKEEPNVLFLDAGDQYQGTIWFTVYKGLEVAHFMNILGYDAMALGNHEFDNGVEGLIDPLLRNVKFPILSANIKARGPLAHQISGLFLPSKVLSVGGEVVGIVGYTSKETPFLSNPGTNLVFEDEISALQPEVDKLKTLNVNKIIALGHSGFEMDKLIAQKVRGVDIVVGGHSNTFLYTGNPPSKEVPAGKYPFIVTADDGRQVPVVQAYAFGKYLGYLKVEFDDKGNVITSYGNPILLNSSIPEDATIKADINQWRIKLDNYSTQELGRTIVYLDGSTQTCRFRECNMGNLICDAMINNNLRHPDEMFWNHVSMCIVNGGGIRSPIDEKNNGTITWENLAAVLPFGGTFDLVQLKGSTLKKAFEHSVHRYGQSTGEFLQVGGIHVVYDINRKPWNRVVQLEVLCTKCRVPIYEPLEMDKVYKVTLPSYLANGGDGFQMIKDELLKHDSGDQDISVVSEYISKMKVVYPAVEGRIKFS

[8] = target: T1, Human CD73 on cells (MDA-MB-231, Jurkat …); assay: cell-based or functional assay; remark: listed apart in the source

B1: CD730002SGMY CDRL2 T52S (Fab, V domains shown)
VH: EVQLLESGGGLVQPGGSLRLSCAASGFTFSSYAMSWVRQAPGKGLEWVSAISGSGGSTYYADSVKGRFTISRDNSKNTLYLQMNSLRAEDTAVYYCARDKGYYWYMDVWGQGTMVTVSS
VL: QSVLTQPPSVSVSPGQTASITCSGDKVGDKYASWYQQKPGQSPVLVIYEDSKRPSGIPERFSGSNSGNTATLTISGTQAMDEADYYCQAWDTSFWVFGGGTKLTVLL
notes: format not clearly stated
FACS signal, fold improvement over parental antibody [1]: 1.5 fold

B2: CD730002SGMY CDRL2 R54Y (Fab, V domains shown)
VH: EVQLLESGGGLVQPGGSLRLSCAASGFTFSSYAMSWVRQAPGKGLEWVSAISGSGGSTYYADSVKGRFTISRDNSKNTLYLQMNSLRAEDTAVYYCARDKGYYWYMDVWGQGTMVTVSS
VL: QSVLTQPPSVSVSPGQTASITCSGDKVGDKYASWYQQKPGQSPVLVIYEDTKYPSGIPERFSGSNSGNTATLTISGTQAMDEADYYCQAWDTSFWVFGGGTKLTVLV
notes: format not clearly stated
FACS signal, fold improvement over parental antibody [1]: 1.2 fold

B3: CD730069 (antibody, V domains shown)
VH: EVQLLESGGGLVQPGGSLRLSCAASGFTFSEYQMGWVRQAPGKGLEWVSYIRSSGGQTIYADSVKGRFTISRDNSKNTLYLQMNSLRAEDTAVYYCARRTYSSGWHIDYWGQGTLVTVSS
VL: DIQMTQSPDSLSASVGDRVTITCRASQSISRYLNWYQQKPGKAPKLLIYGASSLQSGVPSRFSGSGSGTDFSLTISSLQLEDFATYYCQQSYRTPLTFGGGTKVEIQ
Enzyme Inhibition, rCD73, 1/EC50 (nM) (Human CD73 ECD [2]): 0.038 nM⁻¹ | Enzyme Inhibition, MDA-MB-231, 1/EC50 (nM) [3]: 0.0013 nM⁻¹ | Internalization, MDA-MB-231, 1/EC50 (nM) [3]: 0.038 nM⁻¹

B4: C2 (IgG1-TM) (antibody, V domains shown)
VH: EVQLLESGGGLVQPGGSLRLSCAASGFTFSSYAYSWVRQAPGKGLEWVSLIWGSWGSTYYADSVKGRFTISRDNSKNTLYLQMNSLRAEDTAVYYCARLGYSTIDMWGRGTLVTVSS
VL: QSVLTQPPSASGTPGQRVTISCSGSLSNIGRNPVNWYQQLPGTAPKLLIYLDNLRLGGVPDRFSGSKSGTSASLAISGLQSEDEADYYCATWDDSLKGWLFGGGTKLTVL
notes: IgG1-TM format; also called clone 10 C2
Kd (Human CD73 ECD [4]): 23 pM | Kd [5]: 105 pM | Kd [6]: 158 pM | Kd [7]: 67 pM

B5: 73combo2 (C2+GRVE+HPT) (antibody, V domains shown)
VH: EVQLLESGGGLVQPGGSLRLSCAASGFTFSSYAYSWVRQAPGKGLEWVSLIWGSWGSTYYADSVKGRFTISRDNSKNTLYLQMNSLRAEDTAVYYCARLGYGRVDEWGRGTLVTVSS
VL: QSVLTQPPSASGTPGQRVTISCSGSLSNIGRNPVNWYQQLPGTAPKLLIYLDNLRLGGVPDRFSGSKSGTSASLAISGLQSEDEADYYCATWDDSHPGWTFGGGTKLTVL
notes: IgG1-TM format; also called clone 10 combo2
Kd (Human CD73 ECD [4]): 5 pM | Kd [5]: 74 pM | Kd [6]: 166 pM | Kd [7]: 64 pM

B6: 73combo5 (G10+GRVE+HPT) (antibody, V domains shown)
VH: EVQLLESGGGLVQPGGSLRLSCAASGFTFSSYAYSWVRQAPGKGLEWVSAISGSWGRTYYADSVKGRFTISRDNSKNTLYLQMNSLRAEDTAVYYCARLGYGRVDEWGRGTLVTVSS
VL: QSVLTQPPSASGTPGQRVTISCSGSLSNIGRNDVNWYQQLPGTAPKLLIYLNNQRLGGVPDRFSGSKSGTSASLAISGLQSEDEADYYCATWDDSHPGWTFGGGTKLTVL
notes: IgG1-TM format; also called clone 10 combo5
Kd (Human CD73 ECD [4]): 7 pM | Kd [5]: 78 pM | Kd [6]: 169 pM | Kd [7]: 205 pM

B7: G10 (IgG1-TM) (antibody, V domains shown)
VH: EVQLLESGGGLVQPGGSLRLSCAASGFTFSSYAYSWVRQAPGKGLEWVSAISGSWGRTYYADSVKGRFTISRDNSKNTLYLQMNSLRAEDTAVYYCARLGYSTIDLWGRGTLVTVSS
VL: QSVLTQPPSASGTPGQRVTISCSGSLSNIGRNDVNWYQQLPGTAPKLLIYLNNQRLGGVPDRFSGSKSGTSASLAISGLQSEDEADYYCATWDDSLKGWLFGGGTKLTVL
notes: IgG1-TM format; also called clone 10 G10
Kd (Human CD73 ECD [4]): 9 pM | Kd [5]: 258 pM | Kd [6]: 354 pM | Kd [7]: 259 pM

B8: CD730068 (antibody, V domains shown)
VH: EVQLLESGGGLVQPGGSLRLSCAASGFTFSNYIMGWVRQAPGKGLEWVSSISSSGGATIYADSVKGRFTISRDNSKNTLYLQMNSLRAEDMAVYYCAKDHLGGHGMDVWGQGTTVTVSS
VL: DIQMTQSPSSLSASVGDRVTITCRASQDISNYLAWFQQKPGKAPKSLIFAASSLESGVPSKFSGSGSGTDFTLTISSLQPEDSATYYCQQYNSYPLTFGGGTKVEIK
Enzyme Inhibition, rCD73, 1/EC50 (nM) (Human CD73 ECD [2]): 0 nM⁻¹ | Enzyme Inhibition, MDA-MB-231, 1/EC50 (nM) [3]: 0 nM⁻¹ | Internalization, MDA-MB-231, 1/EC50 (nM) [3]: 0 nM⁻¹

B9: CD730002SGMY CDRH2 G65R (Fab, V domains shown)
VH: EVQLLESGGGLVQPGGSLRLSCAASGFTFSSYAMSWVRQAPGKGLEWVSAISGSGGSTYYADSVKRRFTISRDNSKNTLYLQMNSLRAEDTAVYYCARDKGYYWYMDVWGQGTMVTVSS
VL: QSVLTQPPSVSVSPGQTASITCSGDKVGDKYASWYQQKPGQSPVLVIYEDTKRPSGIPERFSGSNSGNTATLTISGTQAMDEADYYCQAWDTSFWVFGGGTKLTVL
notes: format in the FACS read-out not clearly stated
FACS signal, fold improvement over parental antibody [1]: 1.3 fold

B10: CD730002SGMY CDRH2 T57P (Fab, V domains shown)
VH: EVQLLESGGGLVQPGGSLRLSCAASGFTFSSYAMSWVRQAPGKGLEWVSAISGSGGSPYYADSVKGRFTISRDNSKNTLYLQMNSLRAEDTAVYYCARDKGYYWYMDVWGQGTMVTVSS
VL: QSVLTQPPSVSVSPGQTASITCSGDKVGDKYASWYQQKPGQSPVLVIYEDTKRPSGIPERFSGSNSGNTATLTISGTQAMDEADYYCQAWDTSFWVFGGGTKLTVL
notes: as for B9
FACS signal, fold improvement over parental antibody [1]: 1.5 fold

B11: CD730002SGMY CDRH1 M34R (Fab, V domains shown)
VH: EVQLLESGGGLVQPGGSLRLSCAASGFTFSSYARSWVRQAPGKGLEWVSAISGSGGSTYYADSVKGRFTISRDNSKNTLYLQMNSLRAEDTAVYYCARDKGYYWYMDVWGQGTMVTVSS
VL: QSVLTQPPSVSVSPGQTASITCSGDKVGDKYASWYQQKPGQSPVLVIYEDTKRPSGIPERFSGSNSGNTATLTISGTQAMDEADYYCQAWDTSFWVFGGGTKLTVL
notes: as for B9
FACS signal, fold improvement over parental antibody [1]: 1.1 fold

B12: CD730002SGMY CDRH2 A60G (Fab, V domains shown)
VH: EVQLLESGGGLVQPGGSLRLSCAASGFTFSSYAMSWVRQAPGKGLEWVSAISGSGGSTYYGDSVKGRFTISRDNSKNTLYLQMNSLRAEDTAVYYCARDKGYYWYMDVWGQGTMVTVSS
VL: QSVLTQPPSVSVSPGQTASITCSGDKVGDKYASWYQQKPGQSPVLVIYEDTKRPSGIPERFSGSNSGNTATLTISGTQAMDEADYYCQAWDTSFWVFGGGTKLTVL
notes: as for B9
FACS signal, fold improvement over parental antibody [1]: 1.3 fold

B13: CD730002SGMY CDRL2 P55H (Fab, V domains shown)
VH: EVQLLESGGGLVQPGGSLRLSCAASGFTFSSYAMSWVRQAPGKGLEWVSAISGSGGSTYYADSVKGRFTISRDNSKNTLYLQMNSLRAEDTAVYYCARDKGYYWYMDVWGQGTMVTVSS
VL: QSVLTQPPSVSVSPGQTASITCSGDKVGDKYASWYQQKPGQSPVLVIYEDTKRHSGIPERFSGSNSGNTATLTISGTQAMDEADYYCQAWDTSFWVFGGGTKLTVL
notes: format not clearly stated
FACS signal, fold improvement over parental antibody [1]: 1.5 fold

B14: CD730002SGMY CDRH1 Y32V (Fab, V domains shown)
VH: EVQLLESGGGLVQPGGSLRLSCAASGFTFSSVAMSWVRQAPGKGLEWVSAISGSGGSTYYADSVKGRFTISRDNSKNTLYLQMNSLRAEDTAVYYCARDKGYYWYMDVWGQGTMVTVSS
VL: QSVLTQPPSVSVSPGQTASITCSGDKVGDKYASWYQQKPGQSPVLVIYEDTKRPSGIPERFSGSNSGNTATLTISGTQAMDEADYYCQAWDTSFWVFGGGTKLTVL
notes: as for B9
FACS signal, fold improvement over parental antibody [1]: 1.2 fold

B15: Phen0203 hIgG1 (antibody, V domains shown)
VH: EVQLVQSGGGVVQPGRSLRLSCAASGFRFSDFAMHWVRQAPGKGLEWVAGISYDGGNKYYADSVKGRFTISRDNSNNTLYLQMNSLRAEDTAVYYCAKDHGYSGYYGHLDYWGRGTLVTVSS
VL: not shown
FabZAP internalization, EC50, MDA-MB-231 [8]: 92.5 pM | FabZAP internalization, maximum toxicity, MDA-MB-231 [8]: 91%
